Reference: article PMC7689490, “Designed CXCR4 mimic acts as a soluble chemokine receptor that blocks atherogenic inflammation by agonist-specific targeting” (Nature Communications, 2020)
pKd: −log10 of the molar value. Several values for one entry are separate records, joined by “and”; a condition that tells them apart may be missing. Equal entries are not always repeated.

Experiments:
Fluos-msR4M-L1 (human) [1] = target: Fluos-msR4M-L1 (human) (UniProt P61073); assay: other fluorescence titration; 5 nM Fluos-labeled ectodomain peptide titrated with unlabeled MIF, MIF peptide or CXCL12; 10 mM sodium phosphate, pH 7.4, 1% HFIP; emission at 522 nm; apparent KD, 1/1 binding model; one constant for each of three curves
Fluos-msR4M-L1 (human) [2] = target: Fluos-msR4M-L1 (human) (UniProt P61073); assay: fluorescence polarisation; 5 nM Fluos-msR4M-L1 titrated with unlabeled MIF (0.5 to 277.5 nM); 10 mM sodium phosphate, pH 7.2, 0.5% HFIP; RT; apparent KD
[3] = target: 5(6)-carboxytetramethylrhodamine (TAMRA)-msR4M-L1 (human) (UniProt P61073); assay: MST; 100 nM TAMRA-msR4M-L1 titrated with MIF or CXCL12; 20 mM sodium phosphate, pH 7.2, Tween-20; 37 °C; apparent KD
[4] = target: Fluos-ECL2 (fluorescein-labelled ECL2[182–196] peptide of CXCR4) (human) (UniProt P61073); assay: other fluorescence titration; Fluos-labelled CXCR4 ectodomain peptide at 5 nM titrated with unlabelled MIF, MIF(10xAla), CXCL12 or MIF peptide fragments; 10 mM sodium phosphate, pH 7.4, 1% HFIP; emission at 522 nm; apparent KD, 1/1 binding model

Substance | pKd (Fluos-msR4M-L1 (human) [1]) | pKd (Fluos-msR4M-L1 (human) [2]) | pKd [3] | pKd [4]
MIF peptide 38–80 (from UniProt P14174 38-80) | 7.19 and 7.31 and 7.24 | – | – | –
macrophage migration-inhibitory factor (MIF), recombinant human (from UniProt P14174 1-115) (natural protein) | 7.35 and 7.39 and 7.43 | 7.62 and 7.71 and 7.52 | 7.29 and 6.92 and 7.22 | –
MIF peptide 54–80 (from UniProt P14174 54-80) | 7.06 and 7.22 and 7.19 | – | – | –
macrophage migration-inhibitory factor (MIF), recombinant human, unlabelled (from UniProt P14174 1-115) (natural protein) | – | – | – | < 5.30
